Reference: patent US20260242419A1, “A CYCLIC PEPTIDE FOR TRAPPING INTERLEUKIN-1 BETA” (Merck Sharp & Dohme LLC, priority 2023, published 2026)
Starred links: 1 amine or outer side, 2 acyl side, 3 side chain; linkers in the order of their positions; H or OH if unused. Non-standard residues stand in square brackets, D forms with d. No end group written: not given here. dProc3CH24Pal = (2R,3S)-3-(4-pyridylmethyl)pyrrolidine-2-carboxylic acid, O=C([C@H]1[C@@H](Cc2ccncc2)CCN1[*:1])[*:2]; ThrOBn = (2S,3R)-2-amino-3-benzyloxy-butanoic acid, C[C@@H](OCc1ccccc1)[C@H](N[*:1])C(=O)[*:2]; dPyrimA = (2R)-2-amino-3-pyrimidin-5-yl-propanoic acid, O=C([C@@H](Cc1cncnc1)N[*:1])[*:2]; daMeSMe = (2R)-2-amino-3-methoxy-2-methyl-propanoic acid, COC[C@@](C)(N[*:1])C(=O)[*:2]; ThrOMe = (2S,3R)-2-amino-3-methoxy-butanoic acid, CO[C@H](C)[C@H](N[*:1])C(=O)[*:2]; dPro(4R-(4-pyridylmethyl)) = O=C(O)[C@H]1C[C@@H](Cc2ccncc2)CN1; Trp(βS-Me,4-F) = C[C@@H](c1c[nH]c2cccc(F)c12)[C@H](N)C(=O)O; Bip(4'-COOH) = N[C@@H](Cc1ccc(-c2ccc(C(=O)O)cc2)cc1)C(=O)O; Trp(4-Cl) = N[C@@H](Cc1c[nH]c2cccc(Cl)c12)C(=O)O; Ala(pyrimidin-5-yl) = N[C@@H](Cc1cncnc1)C(=O)O; Phe(4-COOH) = N[C@@H](Cc1ccc(C(=O)O)cc1)C(=O)O; Bip = N[C@@H](Cc1ccc(-c2ccccc2)cc1)C(=O)O; Nva(5,5,5-F3) = N[C@@H](CCC(F)(F)F)C(=O)O; Pro(cis-4-F) = O=C(O)[C@@H]1C[C@H](F)CN1; dPhe(4-F) = N[C@H](Cc1ccc(F)cc1)C(=O)O; Dap(CONH2) = NC(=O)NC[C@H](N)C(=O)O; hTyr = N[C@@H](CCc1ccc(O)cc1)C(=O)O; d(αMeD) = C[C@@](N)(CC(=O)O)C(=O)O; h4Pal = N[C@@H](CCc1ccncc1)C(=O)O; hPhe = N[C@@H](CCc1ccccc1)C(=O)O; 4Pal = N[C@@H](Cc1ccncc1)C(=O)O; d3Pal = N[C@H](Cc1cccnc1)C(=O)O; dCha = N[C@H](CC1CCCCC1)C(=O)O; NMeDab = CN[C@@H](CCN)C(=O)O; dCba = N[C@H](CC1CCC1)C(=O)O; dOrn = NCCC[C@@H](N)C(=O)O; Dab = NCC[C@H](N)C(=O)O; Nva = CCC[C@H](N)C(=O)O; Aib = CC(C)(N)C(=O)O

B1: SEQ ID NO: 230 (peptide)
peptide: [Bip(4'-COOH)][4Pal][Phe(4-COOH)]G[Pro(cis-4-F)][Trp(βS-Me,4-F)][Aib]SW[d(αMeD)][Ala(pyrimidin-5-yl)]Q[Dap(CONH2)]G[dProc3CH24Pal]
modifications: lactam (positions not given here); also: macrolactam, ring places not given here
B2: SEQ ID NO: 233 (peptide)
peptide: [Bip(4'-COOH)][4Pal][Phe(4-COOH)]G[Pro(cis-4-F)][Trp(βS-Me,4-F)][Aib]SW[Aib][dPyrimA]Q[Dab]G[dProc3CH24Pal]
modifications: lactam (positions not given here); also: macrolactam, ring places not given here
B3: SEQ ID NO: 227 (peptide)
peptide: [Bip(4'-COOH)][4Pal][Phe(4-COOH)]G[Pro(cis-4-F)][Trp(βS-Me,4-F)][Aib]SW[d(αMeD)][ThrOMe]Q[Dab]G[dProc3CH24Pal]
modifications: lactam (positions not given here); also: macrolactam, ring places not given here
B4: SEQ ID NO: 235 (peptide)
peptide: [Bip(4'-COOH)][4Pal][Phe(4-COOH)]G[Pro(cis-4-F)][Trp(βS-Me,4-F)][Aib]SW[d(αMeD)][Ala(pyrimidin-5-yl)]Q[NMeDab]G[dProc3CH24Pal]
modifications: lactam (positions not given here); also: macrolactam, ring places not given here
B5: SEQ ID NO: 231 (peptide)
peptide: [Bip(4'-COOH)][4Pal][Phe(4-COOH)]G[Pro(cis-4-F)][Trp(βS-Me,4-F)][Aib]SW[d(αMeD)][Nva]Q[Dab]G[dProc3CH24Pal]
modifications: lactam (positions not given here); also: macrolactam, ring places not given here
B6: SEQ ID NO: 228 (peptide)
peptide: [Bip(4'-COOH)][4Pal][Phe(4-COOH)]G[Pro(cis-4-F)][Trp(βS-Me,4-F)][Aib]SW[d(αMeD)][ThrOMe]Q[Dap(CONH2)]G[dProc3CH24Pal]
modifications: lactam (positions not given here); also: macrolactam, ring places not given here
B7: SEQ ID NO: 239 (peptide)
peptide: [Bip(4'-COOH)][4Pal][Phe(4-COOH)]G[Pro(cis-4-F)][Trp(βS-Me,4-F)][Aib]SW[d(αMeD)][dCba]Q[Dab]G[dProc3CH24Pal]
modifications: lactam (positions not given here); also: macrolactam, ring places not given here
B8: SEQ ID NO 242 (peptide)
peptide: cyclo([Bip(4'-COOH)][4Pal][Phe(4-COOH)]G[Pro(cis-4-F)][Trp(βS-Me,4-F)][Aib]SW[d(αMeD)][dS]Q[Dab]G[dPro(4R-(4-pyridylmethyl))])
modifications: ring closure inferred
B9: SEQ ID NO: 223 (peptide)
peptide: [Bip(4'-COOH)][4Pal][Phe(4-COOH)]G[Pro(cis-4-F)][Trp(βS-Me,4-F)][Aib]SW[d(αMeD)][h4Pal]Q[Dap(CONH2)]G[dProc3CH24Pal]
modifications: lactam (positions not given here); also: macrolactam, ring places not given here
B10: SEQ ID NO: 238 (peptide)
peptide: [Bip(4'-COOH)][4Pal][Phe(4-COOH)]G[Pro(cis-4-F)][Trp(βS-Me,4-F)][Aib]SW[d(αMeD)][dL]Q[Dab]G[dProc3CH24Pal]
modifications: lactam (positions not given here); also: macrolactam, ring places not given here
B11: SEQ ID NO 244 (peptide)
peptide: cyclo([Bip][4Pal][Phe(4-COOH)]G[Pro(cis-4-F)][Trp(βS-Me,4-F)][Aib]SW[d(αMeD)][dK]Q[Dap(CONH2)]G[dPro(4R-(4-pyridylmethyl))])
modifications: ring closure inferred
B12: SEQ ID NO: 224 (peptide)
peptide: [Bip(4'-COOH)][4Pal][Phe(4-COOH)]G[Pro(cis-4-F)][Trp(βS-Me,4-F)][Aib]SW[daMeSMe][Ala(pyrimidin-5-yl)]Q[Dab]G[dProc3CH24Pal]
modifications: lactam (positions not given here); also: macrolactam, ring places not given here
B13: SEQ ID NO: 236 (peptide)
peptide: [Bip(4'-COOH)][4Pal][Phe(4-COOH)]G[Pro(cis-4-F)][Trp(βS-Me,4-F)][Aib]SW[d(αMeD)][dPhe(4-F)]Q[Dab]G[dProc3CH24Pal]
modifications: lactam (positions not given here); also: macrolactam, ring places not given here
B14: SEQ ID NO: 220 (peptide)
peptide: [Bip(4'-COOH)][4Pal][Phe(4-COOH)]G[Pro(cis-4-F)][Trp(βS-Me,4-F)][Aib]SW[Aib][hTyr]Q[Dab]G[dProc3CH24Pal]
modifications: lactam (positions not given here); also: macrolactam, ring places not given here
B15: SEQ ID NO: 234 (peptide)
peptide: [Bip(4'-COOH)][4Pal][Phe(4-COOH)]G[Pro(cis-4-F)][Trp(βS-Me,4-F)][Aib]SW[Aib][dD]Q[Dab]G[dProc3CH24Pal]
modifications: lactam (positions not given here); also: macrolactam, ring places not given here
B16: SEQ ID NO 245 (peptide)
peptide: cyclo([Bip][4Pal][Phe(4-COOH)]G[Pro(cis-4-F)][Trp(βS-Me,4-F)][Aib]SW[d(αMeD)][dOrn]Q[Dap(CONH2)]G[dPro(4R-(4-pyridylmethyl))])
modifications: ring closure inferred
B17: SEQ ID NO: 222 (peptide)
peptide: [Bip(4'-COOH)][4Pal][Phe(4-COOH)]G[Pro(cis-4-F)][Trp(βS-Me,4-F)][Aib]SW[d(αMeD)][h4Pal]Q[Dab]G[dProc3CH24Pal]
modifications: lactam (positions not given here); also: macrolactam, ring places not given here
B18: SEQ ID NO: 240 (peptide)
peptide: cyclo([Bip(4'-COOH)][4Pal][Phe(4-COOH)]G[Pro(cis-4-F)][Trp(βS-Me,4-F)][Aib]SW[d(αMeD)][d3Pal]Q[Dab]G[dProc3CH24Pal])
modifications: ring closure inferred
B19: SEQ ID NO: 221 (peptide)
peptide: [Bip(4'-COOH)][4Pal][Phe(4-COOH)]G[Pro(cis-4-F)][Trp(βS-Me,4-F)][Aib]SW[d(αMeD)][hPhe]Q[Dab]G[dProc3CH24Pal]
modifications: lactam (positions not given here); also: macrolactam, ring places not given here
B20: SEQ ID NO: 225 (peptide)
peptide: [Bip(4'-COOH)][4Pal][Phe(4-COOH)]G[Pro(cis-4-F)][Trp(βS-Me,4-F)][Aib]S[Trp(4-Cl)][d(αMeD)][Ala(pyrimidin-5-yl)]Q[Dab]G[dProc3CH24Pal]
modifications: lactam (positions not given here); also: macrolactam, ring places not given here
B21: SEQ ID NO: 232 (peptide)
peptide: [Bip(4'-COOH)][4Pal][Phe(4-COOH)]G[Pro(cis-4-F)][Trp(βS-Me,4-F)][Aib]SW[d(αMeD)][Nva(5,5,5-F3)]Q[Dab]G[dProc3CH24Pal]
modifications: lactam (positions not given here); also: macrolactam, ring places not given here
B22: SEQ ID NO: 229 (peptide)
peptide: [Bip(4'-COOH)][4Pal][Phe(4-COOH)]G[Pro(cis-4-F)][Trp(βS-Me,4-F)][Aib]SW[d(αMeD)][ThrOBn]Q[Dab]G[dProc3CH24Pal]
modifications: lactam (positions not given here); also: macrolactam, ring places not given here
B23: SEQ ID NO: 226 (peptide)
peptide: [Bip(4'-COOH)][4Pal][Phe(4-COOH)]G[Pro(cis-4-F)][Trp(βS-Me,4-F)][Aib]S[Trp(4-Cl)][d(αMeD)][Ala(pyrimidin-5-yl)]Q[Dap(CONH2)]G[dProc3CH24Pal]
modifications: lactam (positions not given here); also: macrolactam, ring places not given here
B24: SEQ ID NO 243 (peptide)
peptide: cyclo([Bip(4'-COOH)][4Pal][Phe(4-COOH)]G[Pro(cis-4-F)][Trp(βS-Me,4-F)][Aib]SW[d(αMeD)][dF]Q[Dab]G[dPro(4R-(4-pyridylmethyl))])
modifications: ring closure inferred
B25: SEQ ID NO: 241 (peptide)
peptide: cyclo([Bip(4'-COOH)][4Pal][Phe(4-COOH)]G[Pro(cis-4-F)][Trp(βS-Me,4-F)][Aib]SW[Aib][Ala(pyrimidin-5-yl)]Q[NMeDab]G[dProc3CH24Pal])
modifications: ring closure inferred
B26: SEQ ID NO: 237 (peptide)
peptide: [Bip(4'-COOH)][4Pal][Phe(4-COOH)]G[Pro(cis-4-F)][Trp(βS-Me,4-F)][Aib]SW[d(αMeD)][dCha]Q[Dab]G[dProc3CH24Pal]
modifications: lactam (positions not given here); also: macrolactam, ring places not given here

What was measured:
[1] = target: Recombinant human IL-1β (BioLegend 579404) (human, UniProt P01584 117-269); assay: cell-based or functional assay
[2] = target: Recombinant human IL-1β (BioLegend 579404) (human, UniProt P01584 117-269); assay: cell-based or functional assay; remark: listed apart in the source

Row | Binder | MRC5 IC50 [1] [pM] | MRC5 IC50 [2] [pM]
1 | B1 | 22 | 
2 | B2 | 30 | 
3 | B3 | 14 | 
4 | B4 | 18 | 
5 | B5 | 27 | 
6 | B6 | 21 | 
7 | B7 | 20 | 
8 | B8 |  | 19
9 | B9 | 27 | 
10 | B10 | 24 | 
11 | B11 |  | 30
12 | B12 | 30 | 
13 | B13 | 21 | 
14 | B14 | 39 | 
15 | B15 | 24 | 
16 | B16 |  | 27
17 | B17 | 20 | 
18 | B18 | 25 | 
19 | B19 | 20 | 
20 | B20 | 19 | 
21 | B21 | 22 | 
22 | B22 | 23 | 
23 | B23 | 22 | 
24 | B24 |  | 22
25 | B25 | 18 | 
26 | B26 | 25 | 
